Values quoted from earlier work in patent US20250108009A1, “METHOD FOR SYNTHESIZING HYBRID NANOPARTICLES COMPRISING APOLIPOPROTEINS” (MEPSGEN CO., LTD., priority 2022, published 2025).

Conditions: Bekard et al. 2011

## insulin
  shear rate at which structural changes and aggregates are formed: 200 s⁻¹
  shear stress at which structural changes and aggregates are formed: 1000 dyne/cm^2
